Data as given in the RNAGym collection of RNA variant scans (doi:10.7554/elife.80360).

B1: CPEB3 Ribozyme (parent)
chain: GGGGGCCACAGCAGAAGCGUUCACGUCGCGGCCCCUGUCAGAUUCUGGUGAAUCUGCGAAUUCUGCUGU

Variants of: B1
Assay: self-cleavage, relative activity (ratio to wild type); higher = more cleavage; co-transcriptional

In order of falling self-cleavage:
1. C27U U69C  0.769
2. C27U G68A  0.614
3. C27U U46A  0.567
4. C27U G58U  0.526
5. C27U U69G  0.457
6. C27U G47C  0.436
7. C27U G68U  0.432
8. C27U G47U  0.431
9. C27U U49G  0.421
10. C27U  0.417
11. C27U A52G  0.415
12. C27U C34U  0.415
13. C27U C32U  0.403
14. C27U G48C  0.397
15. C27U G50U  0.396
16. C27U A51G  0.376
17. C27G U69C  0.374
18. C27U U46G  0.372
19. C27U G50A  0.371
20. C27U G58C  0.351
21. C27U C33U  0.345
22. C27U U67C  0.332
23. C27U C54U  0.328
24. C27U C35U  0.318
25. C27G G68U  0.309
26. C27U G56A  0.308
27. C27U A51U  0.303
28. C27U A52C  0.302
29. C27U U46C  0.301
30. C27U U44A  0.292
31. C27U A52U  0.291
32. C27U U38A  0.281
33. C27G G30C  0.279
34. C27U U67A  0.276
35. C27U C33A  0.271
36. C27U A42C  0.27
37. C27U U38C  0.268
38. C27G U53G  0.267
39. C27G U69A  0.267
40. C27U G31A  0.266
41. C27U C66G  0.262
42. C27G A59G  0.259
43. C27U A51C  0.259
44. C27G A40C  0.258
45. C27G U62C  0.257
46. C27G U67G  0.255
47. C27U A60G  0.254
48. C27G U64G  0.25
49. C27G U67C  0.247
50. C27U U64C  0.245
51. C27G U38C  0.243
52. C27U C45G  0.243
53. C27U C57A  0.242
54. C27G C33G  0.241
55. C27G U62G  0.241
56. C27G A52G  0.24
57. C27G U43C  0.239
58. C27U G58A  0.237
59. C27G G68C  0.234
60. C27G G58C  0.231
61. C27G G30A  0.228
62. C27U C32A  0.227
63. C27G G47C  0.226
64. C27G C63G  0.225
65. C27U G30A  0.224
66. C27G C34U  0.223
67. C27G U53A  0.221
68. C27G U49C  0.22
69. C27U G28C  0.218
70. C27G A51G  0.217
71. C27U U62A  0.217
72. C27G A59U  0.216
73. C27G U64A  0.215
74. C27G C63U  0.209
75. C27G U49A  0.209
76. C27G C29G  0.208
77. C27G C32U  0.207
78. C27U A40U  0.207
79. C27U C33G  0.206
80. C27G A60G  0.204
81. C27U C66U  0.203
82. C27G C32A  0.201
83. C27U C34A  0.201
84. C27U U44G  0.198
85. C27U U64G  0.197
86. C27U G65C  0.196
87. C27U C54G  0.195
88. C27U G41C  0.195
89. C27U G56C  0.194
90. C27G G58U  0.193
91. C27U A40G  0.192
92. C27U A60C  0.192
93. C27U C29A  0.192
94. C27U G31U  0.192
95. C27G A52C  0.191
96. C27G U38A  0.191
97. C27G U61A  0.19
98. C27G U46G  0.188
99. C27U U36G  0.188
100. C27U U43A  0.188
101. C27U G28U  0.187
102. C27U C32G  0.186
103. C27U C39A  0.186
104. C27U G41U  0.186
105. C27U U55A  0.184
106. C27G A60U  0.181
107. C27G U46C  0.181
108. C27U G30U  0.181
109. C27G U36A  0.18
110. C27U C54A  0.18
111. C27G C35U  0.179
112. C27U C66A  0.179
113. C27G A42C  0.177
114. C27G C57G  0.175
115. C27G G50U  0.175
116. C27G C66A  0.174
117. C27G G31A  0.174
118. C27G G31C  0.174
119. C27U A42G  0.174
120. C27U G65A  0.172
121. C27G C35G  0.171
122. C27G G50A  0.17
123. C27U C63U  0.17
124. C27G C54G  0.169
125. C27U U53C  0.169
126. C27U U36A  0.167
127. C27G U67A  0.166
128. C27U C57G  0.166
129. C27U C39G  0.164
130. C27U G30C  0.164
131. C27G G37C  0.162
132. C27G U46A  0.162
133. C27G U55G  0.159
134. C27U C35A  0.158
135. C27G C66U  0.156
136. C27G G48A  0.156
137. C27G U44G  0.155
138. C27G G28U  0.154
139. C27G G41A  0.154
140. C27G A59C  0.151
141. C27G C54U  0.151
142. C27G G41U  0.151
143. C27G A42G  0.15
144. C27G A51U  0.15
145. C27U U44C  0.15
146. C27G G30U  0.149
147. C27U G65U  0.148
148. C27U G37C  0.147
149. C27G C45G  0.144
150. C27U U55C  0.143
151. C27G C34G  0.142
152. C27G U55A  0.142
153. C27G G50C  0.141
154. C27G G65A  0.141
155. C27U U43G  0.14
156. C27U U61C  0.14
157. C27G C39U  0.138
158. C27G G56C  0.135
159. C27G C32G  0.134
160. C27G U53C  0.134
161. C27G A52U  0.132
162. C27G C57A  0.131
163. C27G G28C  0.13
164. C27G C35A  0.124
165. C27G U62A  0.122
166. C27G U49G  0.112
167. C27U G37U  0.0803
